Experiment [1] concerns the target T1, human CD3 expressed on cells (Jurkat cells, a CD3+ human T-cell line; human PBMC T cells) (human, UniProt P07766 23-207; P04234 22-171). The experiment can be described thus: cell-based or functional assay.
For experiment [2], the target named is T1, human CD3 expressed on cells (Jurkat …). Description: FACS on Jurkat cells. The method, then:
FACS data was acquired using the following protocol: Cells at 2×10⁵ per well were incubated with serially diluted antibodies for 30 min on ice. Post incubation, cells were washed and secondary antibody was added and incubated for an additional 30 minutes. After incubation, cells were washed, re-suspended in cold PBS containing 1% BSA and analyzed by flow cytometry with viable Jurkat cells gated by side and forward scatters. The EC₅₀s for cell binding titration were determined using Prism software with values calculated using a 4-parameter non-linear regression analysis.

Experiment [3] has as its target T2, Soluble heterodimeric CD3 protein (hCD3-epsilon/hCD3-delta) with either a human Fc tag (hFcΔAdp/hFc) or a … (human, UniProt P07766 23-126; P04234 22-105).
T2 construct: also called hCD3ε/δ; not shown: Fc tag: human (hFcΔAdp/hFc)
The experiment can be described thus: SPR Biacore 25C antigen-capture. An outline of the steps:
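Rate constants fitted to a 1:1 model, giving KD as kd/ka and dissociative half-life as ln2/(60·kd) minutes. Antibodies flowed over CD3ε/δ heterodimer captured on anti-human or anti-mouse Fc surfaces, run on a Biacore T200 at 25 °C.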

In experiment [4] the target is human CD3 expressed on cells (Jurkat cells; human T-cells of PBMC) (human, UniProt P09693 23-182; P20963 22-164). The experiment can be described thus: cell-based or functional assay.

Where a chain is given by its changes, count along the chain named.

T1 sequence (P07766 23-207 limits assumed, chain 1 of 2): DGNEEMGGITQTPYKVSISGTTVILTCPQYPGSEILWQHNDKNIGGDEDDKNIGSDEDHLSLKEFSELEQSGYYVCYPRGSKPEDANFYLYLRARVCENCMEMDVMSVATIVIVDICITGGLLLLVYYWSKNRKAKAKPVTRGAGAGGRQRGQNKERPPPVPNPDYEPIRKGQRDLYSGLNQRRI
T1 sequence (P04234 22-171 limits assumed, chain 2 of 2): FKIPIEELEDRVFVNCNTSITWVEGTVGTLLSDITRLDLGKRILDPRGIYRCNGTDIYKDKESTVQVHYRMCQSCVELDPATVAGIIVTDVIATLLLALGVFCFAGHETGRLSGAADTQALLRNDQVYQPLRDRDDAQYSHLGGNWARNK
T2 sequence (P07766 23-126 limits assumed, stated change not applied, chain 1 of 2): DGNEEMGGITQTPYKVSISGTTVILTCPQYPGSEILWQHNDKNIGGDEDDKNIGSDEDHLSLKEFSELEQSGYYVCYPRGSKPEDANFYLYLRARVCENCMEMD
T2 sequence (P04234 22-105 limits assumed, stated change not applied, chain 2 of 2): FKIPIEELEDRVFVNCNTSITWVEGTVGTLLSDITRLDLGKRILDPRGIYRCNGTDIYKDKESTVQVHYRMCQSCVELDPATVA
human CD3 expressed on cells (Jurkat cells; human T-cells of PBMC), sequence (chain, as listed by the source, chain 1 of 4): as the sequence (P07766 23-207 limits assumed, chain 1 of 2) above
human CD3 expressed on cells (Jurkat cells; human T-cells of PBMC), sequence (chain, as listed by the source, chain 2 of 4): as the sequence (P04234 22-171 limits assumed, chain 2 of 2) above
human CD3 expressed on cells (Jurkat cells; human T-cells of PBMC), sequence (P09693 23-182, chain 3 of 4): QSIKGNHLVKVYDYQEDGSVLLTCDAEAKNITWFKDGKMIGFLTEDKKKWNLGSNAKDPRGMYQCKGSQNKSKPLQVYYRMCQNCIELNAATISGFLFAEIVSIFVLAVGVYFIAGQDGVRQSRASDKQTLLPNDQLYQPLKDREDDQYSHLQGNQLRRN
human CD3 expressed on cells (Jurkat cells; human T-cells of PBMC), sequence (P20963 22-164, chain 4 of 4): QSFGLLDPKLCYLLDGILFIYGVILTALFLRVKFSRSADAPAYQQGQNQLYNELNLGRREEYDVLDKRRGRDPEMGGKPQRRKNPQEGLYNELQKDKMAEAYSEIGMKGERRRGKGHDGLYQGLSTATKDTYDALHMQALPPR

B1: H2M2789N (antibody, mouse IgG2, V domains shown)
VH: QVTLKESGPALVKPTQTLTLTCTFSGFSLSTSGMCVSWIRQPPGKALEWLARIDWDDDKYYSTSLKTRLTISKDTSKNQVVLTMTNMDPVDTATYYCARMDIVGARGGWFDPWGQGTLVTVSS
VL: DIQMTQSPSSLSASVGDRVTITCRASQGISNYLAWFQQKPGKAPKSLIYAASSLQSGVPSKFSGSGSGTDFTLTISSLQPEDFATYYCQQYNSYPLTFGGGTKVEIK
As to B1, the “EC50 [M] hPBMC Proliferation” value in experiment [1] turned out to be 2.85e-08 M.

B2: H1M3613N (antibody, mouse IgG1, V domains shown)
VH: EVQLVESGGGLVQPGRSLKLSCTASGFTFADYTMHWVRQGPGKGLEWVSDISWNSGSKGYADSVKGRFTISRDNAKNSLYLQMNSLRTEDTALYYCAKDMSGYAHYYYYALDVWGQGTTVTVSS
VL: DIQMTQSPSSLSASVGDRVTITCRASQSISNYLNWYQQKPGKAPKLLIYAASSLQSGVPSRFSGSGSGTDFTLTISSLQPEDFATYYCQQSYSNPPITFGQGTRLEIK
notes: H1M: mouse IgG1 Fc, human variable regions; divalent
B2: the midpoint of the response in experiment [2], the EC50, lay at 10.3 nM. In addition, in experiment [3], the Kd amounted to 0.435 nM, the “T½” value stood at 2 h, the koff was found to be 9.6e-05 s⁻¹ and the kon was found to be 220000 M⁻¹ s⁻¹.

B3: H2M2690N (antibody, mouse IgG2, V domains shown)
VH: EVQLVESGGGLVQPGRSLRLSCAASGFTFDDYTMHWVRQAPGKGLEWVSGISWNSGSIGYADSVKGRFTISRDNAKKSLYLQMNSLRAEDTALYYCAKDNSGYGHYYYGMDVWGQGTTVTVAS
VL: EIVMTQSPATLSVSPGERATLSCRASQSVSSNLAWYQQKPGQAPRLLIYGASTRATGIPARFSGSGSGTEFTLTISSLQSEDFAVYYCQHYINWPLTFGGGTKVEIK
notes: H2M: mouse IgG2 Fc, human variable regions; divalent
The molecule B3 gave an EC50 in experiment [2] of 4.37 nM. In addition, the “EC50 [M] hPBMC Proliferation” value in experiment [1] was determined as 5.37e-12 M. For the same molecule, in experiment [3], the Kd worked out at 0.0799 nM, the “T½” value was 30.3 h, the koff was 6.35e-06 s⁻¹ and the kon was determined as 75100 M⁻¹ s⁻¹.

B4: H2M2777N (antibody, mouse IgG2, V domains shown)
VH: QVQLVESGGGVVQPGRSLRLSCIASGFTFRSYGMHWVRQAPGKGLEWVAMIYYDGNNKYYADSVRGRFTISRDNSKNTLYLQMNSLRADDTAVYFCARGPGYNWLDPWGQGTLVTVSS
VL: B3 VL with H90Q, I92N, W94R
notes: as for B3
B4: the EC50 in experiment [2] was 2.16 nM. For the same molecule, in experiment [1], the “EC50 [M] hPBMC Proliferation” value came out at 2.51e-11 M. For the same molecule, in experiment [3], binding was characterised by a dissociation constant (Kd) of 0.554 nM, the “T½” value turned out to be 0.6 h, the koff turned out to be 0.000321 s⁻¹ and the kon was 580000 M⁻¹ s⁻¹.

B5: H2M2778N (antibody, mouse IgG2, V domains shown)
VH: EVQLVESGGGLVQPGRSLRLSCAASGFTFDDYSMHWVRQAPGKGLEWVSGISWNSRSIDYADSVKGRFTISRDNAKNSLYLQMNSLRAEDTALYYCVKDNSGYGRYYYYGMDVWGQGTTVSVSS
VL: B3 VL with E1K, S31G, G57S, Y87F, I92Y, K107R
notes: as for B3
For B5, the EC50 in experiment [2] was determined as 3.62 nM. In addition, in experiment [3], the Kd was found to be 0.0468 nM, the “T½” value was 29.3 h, the koff worked out at 6.57e-06 s⁻¹ and the kon turned out to be 150000 M⁻¹ s⁻¹.

B6: H2M2708N (antibody, mouse IgG2, V domains shown)
VH: B4 VH with I23A, Y32F, K43R, Y53F, N56K, Q82E, N84S, D89E
VL: B3 VL with A19V, V29I, S31R, I58V, Y86F, Y87H, H90Q, I92N, W94R, K103E
notes: as for B3
Turning to B6, a half-maximal effect in experiment [2] (EC50) was put at 0.658 nM. Also, in experiment [1], the “EC50 [M] hPBMC Proliferation” value is 2.69e-08 M. Moreover, in experiment [3], binding was characterised by a dissociation constant (Kd) of 0.131 nM, the “T½” value was 0.85 h, the koff came to 0.000227 s⁻¹ and the kon was 1.73e+06 M⁻¹ s⁻¹.

B7: H1M2692N (antibody, mouse IgG1, V domains shown)
VH: B5 VH with R16G, T28S, S33T, A40P, R56G, D59G, E89G, V97A, R105Y, S121T
VL: B3 VL with H90Q, I92Y
notes: as for B2
As to B7, the EC50 in experiment [2] stood at 5.99 nM. Also, in experiment [1], the “EC50 [M] hPBMC Proliferation” value was 1.42e-10 M. Further, in experiment [3], binding was characterised by a dissociation constant (Kd) of 0.238 nM, the “T½” value was 19.4 h, the koff was determined as 9.9e-06 s⁻¹ and the kon was 41900 M⁻¹ s⁻¹.

B8: H2M2707N (antibody, mouse IgG2, V domains shown)
VH: B4 VH
VL: B3 VL with H90Q, I92N, W94R
notes: as for B3
In experiment [2], B8 yielded an EC50 of 124 nM. For the same molecule, in experiment [1], the “EC50 [M] hPBMC Proliferation” value is 1.92e-12 M. Besides, in experiment [3], the affinity, expressed as Kd, was 0.715 nM; the “T½” value turned out to be 0.683 h; the koff was determined as 0.000285 s⁻¹; the kon is 399000 M⁻¹ s⁻¹.

B9: H2M2691N (antibody, mouse IgG2, V domains shown)
VH: B3 VH
VL: B3 VL
notes: as for B3
The molecule B9 displayed an EC50 in experiment [2] of 6.77 nM. For the same molecule, the “EC50 [M] hPBMC Proliferation” value in experiment [1] was 3.43e-11 M. Moreover, in experiment [3], the Kd came to 0.254 nM, the “T½” value was 19.3 h, the koff stood at 9.98e-06 s⁻¹ and the kon was found to be 39400 M⁻¹ s⁻¹.

B10: H1M2712N (antibody, mouse IgG1, V domains shown)
VH: B3 VH with R16G, S25T, Y32F, A61V, K77N, H105Y, A122S
VL: B3 VL with Q27H, S31R, L33S, V85I, H90Q, I92N
notes: H1M: mouse IgG1 Fc; divalent
B10: it took 21.9 nM to reach a half-maximal effect in experiment [2] (EC50). Moreover, the “EC50 [M] hPBMC Proliferation” value in experiment [1] was found to be 1.28e-10 M. Also, in experiment [3], the Kd was found to be 0.295 nM, the “T½” value was determined as 14.1 h, the off-rate constant (koff) came out at 1.37e-05 s⁻¹ and the kon worked out at 47500 M⁻¹ s⁻¹.

B11: H2M2775N (antibody, mouse IgG2, V domains shown)
VH: B4 VH with I23A, Y32F, K43R, Y53F, N56K, Q82E, N84S, D89E
VL: EIVMTQSPATLSVSPGERVILSCRASQSISRNLAWYQQKPGQAPRLLIYGATTRATGVPARFSGSGSGTEFTLTISSLQSEDFAVFYCQQYNNRPLTFGGGTEVEIK
notes: as for B3
Consider B11, for which, in experiment [2], a half-maximal response (EC50) required 1.32 nM. Besides, the “EC50 [M] hPBMC Proliferation” value in experiment [1] was determined as 1.09e-09 M. In experiment [3], the Kd is 0.138 nM, the “T½” value came out at 0.883 h, the koff was 0.000216 s⁻¹ and the kon turned out to be 1.56e+06 M⁻¹ s⁻¹.

B12: H2M2885N (antibody, mouse IgG2, V domains shown)
VH: B4 VH with I23A, Y32F, K43R, Y53F, N56K, Q82E, N84S, D89E
VL: B11 VL
notes: as for B3
The molecule B12 displayed an EC50 in experiment [2] of 2.09 nM. In experiment [1], the “EC50 [M] hPBMC Proliferation” value was 2.49e-12 M. Besides, in experiment [3], binding was characterised by a dissociation constant (Kd) of 0.111 nM, the “T½” value stood at 1.27 h, the koff turned out to be 0.000152 s⁻¹ and the kon was 1.37e+06 M⁻¹ s⁻¹.

B13: H2M2886N (antibody, mouse IgG2, V domains shown)
VH: B4 VH with I23A, Y32F, K43R, Y53F, N56K, Q82E, N84S, D89E
VL: B11 VL
notes: as for B3
In experiment [2], B13 showed an EC50 of 3.97 nM. For the same molecule, in experiment [1], the “EC50 [M] hPBMC Proliferation” value came out at 2.69e-12 M. In experiment [3], the Kd turned out to be 0.0956 nM, the “T½” value amounted to 1.42 h, the koff amounted to 0.000136 s⁻¹ and the on-rate constant (kon) worked out at 1.42e+06 M⁻¹ s⁻¹.

B14: H2M2706N (antibody, mouse IgG2, V domains shown)
VH: B4 VH with I23A, G33A, I51V, K58Q
VL: B3 VL with S31R, E70D, H90Q, I92N, E105V
notes: as for B3
B14 returned an EC50 in experiment [2] of 2.37 nM. Moreover, the “EC50 [M] hPBMC Proliferation” value in experiment [1] was 3.86e-12 M. Further, in experiment [3], binding was put at a Kd of 0.544 nM, the “T½” value was 0.633 h, the koff was determined as 0.000306 s⁻¹ and the kon was determined as 563000 M⁻¹ s⁻¹.

B15: H2M2711N (antibody, V domains shown)
VH: B4 VH with I23A, Y32F, K43R, Y53F, N56K, Q82E, N84S, D89E
VL: B11 VL with V19A, I20T, I29V, T52S, Y87H
notes: as for B3
In experiment [2], B15 displayed an EC50 of 1.16 nM. Besides, the “EC50 [M] hPBMC Proliferation” value in experiment [1] was 6.48e-10 M. Besides, in experiment [3], the Kd is 0.151 nM, the “T½” value came out at 0.8 h, the koff stood at 0.00024 s⁻¹ and the kon amounted to 1.59e+06 M⁻¹ s⁻¹.

B16: H2M2774N (antibody, mouse IgG2, V domains shown)
VH: B4 VH with I23V, E46Q, N56K, D89E, V93M
VL: B3 VL with S28R, V29I, I58S, F83V, H90Q, Y91H, I92N
notes: as for B3
In the case of B16, it took 0.352 nM to reach a half-maximal effect in experiment [2] (EC50). Besides, the “EC50 [M] hPBMC Proliferation” value in experiment [1] amounted to 4.92e-10 M. Moreover, in experiment [3], binding was put at a Kd of 0.135 nM, the “T½” value stood at 0.567 h, the koff was 0.000336 s⁻¹ and the kon came to 2.49e+06 M⁻¹ s⁻¹.

B17: H2M2710N (antibody, V domains shown)
VH: B4 VH with I23A, Y32F, K43R, Y53F, N56K, Q82E, N84S, D89E
VL: B11 VL with V19A, I20T, I29V, T52S, Y87H
notes: as for B3
The molecule B17 returned an EC50 in experiment [2] of 0.71 nM. Further, the “EC50 [M] hPBMC Proliferation” value in experiment [1] came to 2.11e-10 M. Moreover, in experiment [3], binding was put at a Kd of 0.153 nM, the “T½” value came to 0.8 h, the koff is 0.000243 s⁻¹ and the kon was determined as 1.59e+06 M⁻¹ s⁻¹.

B18: H1H5799P (antibody, human IgG1, V domains shown)
VH: QVQLVQSGAEVKKPGASVKVSCKASGYTFIGYYMHWVRQAPGQGLEWMGWINPKSGGTNYAQKFQGRVTMTGDTSISTAYMELSRLRSDDTAVFYCARMGDGAMFDYWGQGTLVTVSS
VL: DIQMTQSPSSLSASVGDRVTITCRASQRISSYLNWYQQKAGKAPKVLIYTASSLQSGVPSRFSGSGSGTDFTLTISSLQPEDFATYYCQQSYSTPLTFGGGTKVEIK
On to B18, for which, in experiment [4], the “EC50 [M] hPBMC Proliferation” value worked out at 1.63e-13 M.

B19: H2M3548N (antibody, mouse IgG2, V domains shown)
VH: EVQLVESGGGLVQPGRSLRLSCAASGFKFADYAMHWVRQAPGKGLEWVSEISWNSGSIGYVDSVKGRFTISRDNAKNSLYLQMNSLRAEDTALYYCVKDKSGYGHYYIGMDVWGQGTTVIVSS
VL: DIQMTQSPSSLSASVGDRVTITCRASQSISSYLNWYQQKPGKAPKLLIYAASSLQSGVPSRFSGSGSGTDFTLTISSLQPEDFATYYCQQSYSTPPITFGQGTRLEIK
notes: as for B3
In experiment [2], B19 gave an EC50 of 1.1 nM. The “EC50 [M] hPBMC Proliferation” value in experiment [1] was 1.89e-12 M.

For the origin of these results see patent US20190127480A1 (Regeneron, published 2019).
